Laboratory results reported in PMC3397948, “Cytoplasmic Sulfurtransferases in the Purple Sulfur Bacterium Allochromatium vinosum: Evidence for Sulfur Transfer from DsrEFH to DsrC” (PLoS ONE, 2012).

B1: DsrC from Allochromatium vinosum, wild type [Allochromatium vinosum] / DsrEFH from Allochromatium vinosum (DsrE2F2H2 heterohexamer), wild type [Allochromatium vinosum] (parent complex)
chain 1: MADTIEVDGKQFAVDEEGYLSNLNDWVPGVADVMAKQDNLELTEEHWDIINFLREYYEEYQIAPAVRVLTKAVGKKLGKEKGNSKYLYSLFPYGPAKQACRFAGLPKPTGCV
chain 2: MKFALQINEGPYQHQASDSAYQFAKAALEKGHEIFRVFFYHDGVNNSTRLTTPPQDDRHIVNRWAELAEQYELDMVVCVAAAQRRGIVDEGEASRNGKDATNIHPKFRISGLGQLVEAAIQADRLVVFGD
chain 3: MSEVVKKFMYLNRKAPYGTIYAWEALEVVLIGAAFDQDVCVLFLDDGVYQLTRGQDTKGIGMKNFSPTYRTLGDYEVRRIYVDRDSLEARGLTQDDLVEIAFEDMETEEEFDNIVEVIDSARVSELMNESDAVFSF
chain 4: MSILHTVNKSPFERNSLESCLKFATEGASVLLFEDGIYAALAGTRVESQVTEALGKLKLYVLGPDLKARGFSDERVIPGISVVDYAGFVDLTTECDTVQAWL

Variants of: B1
Experiment: SPR; DsrEFH immobilized; reduced analyte, 80 nM; parent: 35; read off a plot

Point of comparison: chain 1 C100S, chain 1 C111S, response ~2.8 RU. Against it:
- chain 1 C111S — higher, ~3 RU
- chain 1 C100S — higher, ~31 RU
